Assay: Thermal stability study (remaining activity after incubation)
Type: physicochemical
Experimental: FIGS. 19 and 20—show the effect of temperature on the stability of the Bsp184FDH and Bsp383FDH enzymes. In FIG. […] In FIG. 20 (1) Bsp184FDH (2.1 mg/mL) and (2) Bsp383FDH (1.5 mg/mL) were incubated at 60° C. and 70° C. for 48 hours period in a similar way. Remaining activities were assayed under standard assay conditions and were expressed as the percentage of activities.
Thermal stability for purified wild-type BcenFDH1 (Bsp184FDH) and BspFDH2 (Bsp383FDH) catalyzed formate oxidation were investigated by Uv/V is spectrophotometry in a 96-well plate format. The results are illustrated in FIGS. 19 and 20. […] In addition, time based-thermal stability for purified wild-type BcenFDH1 (Bsp184FDH) and BspFDH2 (Bsp383FDH) catalyzed formate oxidation were also investigated at 60° C. and 70° C. over 48 hours in a similar way. The samples were spun down briefly to remove any precipitations before use. 10 μL of heat-treated BcenFDH1 and BspFDH2 were added into each well and equilibrated for 3 min at 30° C. after adding 170 μL of 200 mM sodium formate (dissolving in 50 mM sodium phosphate buffer, pH 7.0.) The reaction was initiated by addition of 20 μL of NADP^+ solution from a freshly prepared stock of 20 mM using an 8-channel pipette. The plate was then immediately placed into the plate reader. The plate was shaken for 5 seconds to ensure thorough mixing. Time-based measurements were recorded every 10 s for 10 min. The rate of formate oxidation was calculated using the absorption coefficient of 3.38 mM^−1 (for 200 μL).

B1: Bsp383FDH: wild type FDH from Burkholderia sp 383, Seq ID No: 1, C-terminal His-tagged (protein, listed as Burkholderia sp.)
chain: MATVLCVLYPDPVDGYPPRYVRDAIPVITHYADGQTAPTPAGPPGFQPGELVGCVSGALGLRGYMEAHGHTLIVTSDKDSPDSEFERRLPEADVVISQPFWPAYLTAERIARAPKLKLALTAGIGSDHVDLDAAARARITVAEVTGSNSISVAEHVVMTTLALVRNYLPSHAIAQQGGWNIADCVSRSYDVEGMHFGTVGAGRIGLAVLRRLKPFGLQLHYTQRHRLDASIEQELGLTYHADAASLASAVDIVNLQIPLYPSTEHLFDAAMIARMKRGAYLINTARAKLVDRDAVVNALTSGHLAGYGGDVWFPQPAPADHPWRTMPFNGMTPHISGTSLSAQARYAAGTLEILQCWFDGKPIRNEYLIVDGGTLAGTGAQSYRLT
modifications: C-terminal His tag
- temperature at which the enzymes denature: 80 °C
- activity lost upon incubation (55° C. for 2 hours): no activity was lost
- stability at room temperature (room temperature for weeks): stable
